Assays:
[1] = target: the molecule itself; experiment: native MS; 2.5 µM protein in 150 mM ammonium acetate pH 7.5; static nano-electrospray, LCT time-of-flight
[2] = target: the molecule itself; experiment: AUC; sedimentation velocity, c(s) distribution; low concentration (9 µM contactin 1^Ig1–6, 5 µM contactin 1^fe), 12 mm centerpieces; 25 mM HEPES pH 7.5, 150 mM NaCl, 20 °C; abundances relative to normalized monomer abundance
[3] = target: the molecule itself; experiment: AUC; sedimentation velocity, c(s) distribution; higher concentration (36 µM contactin 1^Ig1–6, 22 µM contactin 1^fe), 3 mm centerpieces; 25 mM HEPES pH 7.5, 150 mM NaCl, 20 °C; abundances relative to normalized monomer abundance
[4] = K562 cell clustering, co-clustering ratio; details: glycan changed form; control: untreated contactin 1 and neurofascin 155 K562 cells

| Protein | stoichiometry N [1] | Dimer abundance (%) [2] [%] | Trace amounts higher order species [2] [%] | Trimer abundance (%) [2] [%] | Dimer abundance (%) [3] [%] | Trimer abundance (%) [3] [%] | other: heterophilic cell co-clustering [4] |
| --- | --- | --- | --- | --- | --- | --- | --- |
| contactin 1^fe (full ectodomain, residues 21–996), complex glycans (domain or fragment, mouse, UniProt P12960 21-996, looked up, N-linked complex glycans, contactin 1, mouse, full ectodomain, residues 21–996; template Image Clone 30099512; Same chain as m7, other host and glycan type; also called contactin 1^fe CG; source: HEK293-E (EBNA1-expressing HEK293), secreted, purified (Ni Sepharose excel, SEC)) DFTWHRRYGHGVSEEDKGFGPIFEEQPINTIYPEESLEGKVSLNCRARASPFPVYKWRMNNGDVDLTNDRYSMVGGNLVINNPDKQKDAGVYYCLASNNYGMVRSTEATLSFGYLDPFPPEERPEVKVKEGKGMVLLCDPPYHFPDDLSYRWLLNEFPVFITMDKRRFVSQTNGNLYIANVESSDRGNYSCFVSSPSITKSVFSKFIPLIPIPERTTKPYPADIVVQFKDIYTMMGQNVTLECFALGNPVPDIRWRKVLEPMPSTAEISTSGAVLKIFNIQLEDEGLYECEAENIRGKDKHQARIYVQAFPEWVEHINDTEVDIGSDLYWPCIATGKPIPTIRWLKNGYSYHKGELRLYDVTFENAGMYQCIAENAYGSIYANAELKILALAPTFEMNPMKKKILAAKGGRVIIECKPKAAPKPKFSWSKGTEWLVNSSRILIWEDGSLEINNITRNDGGIYTCFAENNRGKANSTGTLVITNPTRIILAPINADITVGENATMQCAASFDPALDLTFVWSFNGYVIDFNKEITHIHYQRNFMLDANGELLIRNAQLKHAGRYTCTAQTIVDNSSASADLVVRGPPGPPGGLRIEDIRATSVALTWSRGSDNHSPISKYTIQTKTILSDDWKDAKTDPPIIEGNMESAKAVDLIPWMEYEFRVVATNTLGTGEPSIPSNRIKTDGAAPNVAPSDVGGGGGTNRELTITWAPLSREYHYGNNFGYIVAFKPFDGEEWKKVTVTNPDTGRYVHKDETMTPSTAFQVKVKAFNNKGDGPYSLVAVINSAQDAPSEAPTEVGVKVLSSSEISVHWKHVLEKIVESYQIRYWAGHDKEAAAHRVQVTSQEYSARLENLLPDTQYFIEVGACNSAGCGPSSDVIETFTRKAPPSQPPRIISSVRSGSRYIITWDHVVALSNESTVTGYKILYRPDGQHDGKLFSTHKHSIEVPIPRDGEYVVEVRAHSDGGDGVVSQVKISG | 2 | 9.9 | 4.6 | 3.4 | 9.8 | 4 | – |
| contactin 1^fe Leu279Arg, high mannose glycans (domain or fragment, mouse, UniProt P12960 21-996, looked up, N-linked high mannose glycans, contactin 1, mouse, full ectodomain, residues 21–996, Leu279Arg; template Image Clone 30099512; also called Leu279Arg contactin 1^fe; Contactin 1^fe Leu279Arg HM) DFTWHRRYGHGVSEEDKGFGPIFEEQPINTIYPEESLEGKVSLNCRARASPFPVYKWRMNNGDVDLTNDRYSMVGGNLVINNPDKQKDAGVYYCLASNNYGMVRSTEATLSFGYLDPFPPEERPEVKVKEGKGMVLLCDPPYHFPDDLSYRWLLNEFPVFITMDKRRFVSQTNGNLYIANVESSDRGNYSCFVSSPSITKSVFSKFIPLIPIPERTTKPYPADIVVQFKDIYTMMGQNVTLECFALGNPVPDIRWRKVREPMPSTAEISTSGAVLKIFNIQLEDEGLYECEAENIRGKDKHQARIYVQAFPEWVEHINDTEVDIGSDLYWPCIATGKPIPTIRWLKNGYSYHKGELRLYDVTFENAGMYQCIAENAYGSIYANAELKILALAPTFEMNPMKKKILAAKGGRVIIECKPKAAPKPKFSWSKGTEWLVNSSRILIWEDGSLEINNITRNDGGIYTCFAENNRGKANSTGTLVITNPTRIILAPINADITVGENATMQCAASFDPALDLTFVWSFNGYVIDFNKEITHIHYQRNFMLDANGELLIRNAQLKHAGRYTCTAQTIVDNSSASADLVVRGPPGPPGGLRIEDIRATSVALTWSRGSDNHSPISKYTIQTKTILSDDWKDAKTDPPIIEGNMESAKAVDLIPWMEYEFRVVATNTLGTGEPSIPSNRIKTDGAAPNVAPSDVGGGGGTNRELTITWAPLSREYHYGNNFGYIVAFKPFDGEEWKKVTVTNPDTGRYVHKDETMTPSTAFQVKVKAFNNKGDGPYSLVAVINSAQDAPSEAPTEVGVKVLSSSEISVHWKHVLEKIVESYQIRYWAGHDKEAAAHRVQVTSQEYSARLENLLPDTQYFIEVGACNSAGCGPSSDVIETFTRKAPPSQPPRIISSVRSGSRYIITWDHVVALSNESTVTGYKILYRPDGQHDGKLFSTHKHSIEVPIPRDGEYVVEVRAHSDGGDGVVSQVKISG | ≤ 6 | 7.3 | 1.4 | 8.7 | 5.7 | 6.7 | – |
| contactin 1^fe (full ectodomain, residues 21–996), high mannose glycans (domain or fragment, mouse, UniProt P12960 21-996, looked up, N-linked high mannose glycans, contactin 1, mouse, full ectodomain, residues 21–996; template Image Clone 30099512; Vector pUPE107.03 supplies a cystatin secretion signal peptide; also called contactin 1^fe HM; source: HEK293-ES (GnTI−, EBNA1-expressing HEK293), secreted, purified (Ni Sepharose excel, SEC)) DFTWHRRYGHGVSEEDKGFGPIFEEQPINTIYPEESLEGKVSLNCRARASPFPVYKWRMNNGDVDLTNDRYSMVGGNLVINNPDKQKDAGVYYCLASNNYGMVRSTEATLSFGYLDPFPPEERPEVKVKEGKGMVLLCDPPYHFPDDLSYRWLLNEFPVFITMDKRRFVSQTNGNLYIANVESSDRGNYSCFVSSPSITKSVFSKFIPLIPIPERTTKPYPADIVVQFKDIYTMMGQNVTLECFALGNPVPDIRWRKVLEPMPSTAEISTSGAVLKIFNIQLEDEGLYECEAENIRGKDKHQARIYVQAFPEWVEHINDTEVDIGSDLYWPCIATGKPIPTIRWLKNGYSYHKGELRLYDVTFENAGMYQCIAENAYGSIYANAELKILALAPTFEMNPMKKKILAAKGGRVIIECKPKAAPKPKFSWSKGTEWLVNSSRILIWEDGSLEINNITRNDGGIYTCFAENNRGKANSTGTLVITNPTRIILAPINADITVGENATMQCAASFDPALDLTFVWSFNGYVIDFNKEITHIHYQRNFMLDANGELLIRNAQLKHAGRYTCTAQTIVDNSSASADLVVRGPPGPPGGLRIEDIRATSVALTWSRGSDNHSPISKYTIQTKTILSDDWKDAKTDPPIIEGNMESAKAVDLIPWMEYEFRVVATNTLGTGEPSIPSNRIKTDGAAPNVAPSDVGGGGGTNRELTITWAPLSREYHYGNNFGYIVAFKPFDGEEWKKVTVTNPDTGRYVHKDETMTPSTAFQVKVKAFNNKGDGPYSLVAVINSAQDAPSEAPTEVGVKVLSSSEISVHWKHVLEKIVESYQIRYWAGHDKEAAAHRVQVTSQEYSARLENLLPDTQYFIEVGACNSAGCGPSSDVIETFTRKAPPSQPPRIISSVRSGSRYIITWDHVVALSNESTVTGYKILYRPDGQHDGKLFSTHKHSIEVPIPRDGEYVVEVRAHSDGGDGVVSQVKISG | 2 | 11.7 | – | 1.8 | 2.9 | 0.3 | – |
| contactin 1^Ig1–6 (residues 21–604), high mannose glycans (domain or fragment, mouse, UniProt P12960 21-604, looked up, N-linked high mannose glycans (glycans at Asn208, Asn258 and Asn521 are named), contactin 1, mouse, domains Ig1 to Ig6, residues 21–604; template Image Clone 30099512; Vector pUPE107.03 supplies a cystatin secretion signal peptide; also called CNTN1^Ig1–6; contactin 1^Ig1–6 HM; source: HEK293-ES (GnTI−, EBNA1-expressing HEK293), secreted, purified (Ni Sepharose excel, SEC)) DFTWHRRYGHGVSEEDKGFGPIFEEQPINTIYPEESLEGKVSLNCRARASPFPVYKWRMNNGDVDLTNDRYSMVGGNLVINNPDKQKDAGVYYCLASNNYGMVRSTEATLSFGYLDPFPPEERPEVKVKEGKGMVLLCDPPYHFPDDLSYRWLLNEFPVFITMDKRRFVSQTNGNLYIANVESSDRGNYSCFVSSPSITKSVFSKFIPLIPIPERTTKPYPADIVVQFKDIYTMMGQNVTLECFALGNPVPDIRWRKVLEPMPSTAEISTSGAVLKIFNIQLEDEGLYECEAENIRGKDKHQARIYVQAFPEWVEHINDTEVDIGSDLYWPCIATGKPIPTIRWLKNGYSYHKGELRLYDVTFENAGMYQCIAENAYGSIYANAELKILALAPTFEMNPMKKKILAAKGGRVIIECKPKAAPKPKFSWSKGTEWLVNSSRILIWEDGSLEINNITRNDGGIYTCFAENNRGKANSTGTLVITNPTRIILAPINADITVGENATMQCAASFDPALDLTFVWSFNGYVIDFNKEITHIHYQRNFMLDANGELLIRNAQLKHAGRYTCTAQTIVDNSSASADLVVRG | – | 2.4 | 0.6 | 0.8 | 0.1 | – | – |
| contactin 1: kifunensine on contactin 1 cells (protein) parent chain: MKMPLLVSHLLLISLTSCLGDFTWHRRYGHGVSEEDKGFGPIFEEQPINTIYPEESLEGKVSLNCRARASPFPVYKWRMNNGDVDLTNDRYSMVGGNLVINNPDKQKDAGVYYCLASNNYGMVRSTEATLSFGYLDPFPPEERPEVKVKEGKGMVLLCDPPYHFPDDLSYRWLLNEFPVFITMDKRRFVSQTNGNLYIANVESSDRGNYSCFVSSPSITKSVFSKFIPLIPIPERTTKPYPADIVVQFKDIYTMMGQNVTLECFALGNPVPDIRWRKVLEPMPSTAEISTSGAVLKIFNIQLEDEGLYECEAENIRGKDKHQARIYVQAFPEWVEHINDTEVDIGSDLYWPCIATGKPIPTIRWLKNGYSYHKGELRLYDVTFENAGMYQCIAENAYGSIYANAELKILALAPTFEMNPMKKKILAAKGGRVIIECKPKAAPKPKFSWSKGTEWLVNSSRILIWEDGSLEINNITRNDGGIYTCFAENNRGKANSTGTLVITNPTRIILAPINADITVGENATMQCAASFDPALDLTFVWSFNGYVIDFNKEITHIHYQRNFMLDANGELLIRNAQLKHAGRYTCTAQTIVDNSSASADLVVRGPPGPPGGLRIEDIRATSVALTWSRGSDNHSPISKYTIQTKTILSDDWKDAKTDPPIIEGNMESAKAVDLIPWMEYEFRVVATNTLGTGEPSIPSNRIKTDGAAPNVAPSDVGGGGGTNRELTITWAPLSREYHYGNNFGYIVAFKPFDGEEWKKVTVTNPDTGRYVHKDETMTPSTAFQVKVKAFNNKGDGPYSLVAVINSAQDAPSEAPTEVGVKVLSSSEISVHWKHVLEKIVESYQIRYWAGHDKEAAAHRVQVTSQEYSARLENLLPDTQYFIEVGACNSAGCGPSSDVIETFTRKAPPSQPPRIISSVRSGSRYIITWDHVVALSNESTVTGYKILYRPDGQHDGKLFSTHKHSIEVPIPRDGEYVVEVRAHSDGGDGVVSQVKISGVSTLSSSLLSLLLPSLGFLVYSEF | – | – | – | – | – | – | increases |
| contactin 1: kifunensine on both cell types (protein) parent chain: MKMPLLVSHLLLISLTSCLGDFTWHRRYGHGVSEEDKGFGPIFEEQPINTIYPEESLEGKVSLNCRARASPFPVYKWRMNNGDVDLTNDRYSMVGGNLVINNPDKQKDAGVYYCLASNNYGMVRSTEATLSFGYLDPFPPEERPEVKVKEGKGMVLLCDPPYHFPDDLSYRWLLNEFPVFITMDKRRFVSQTNGNLYIANVESSDRGNYSCFVSSPSITKSVFSKFIPLIPIPERTTKPYPADIVVQFKDIYTMMGQNVTLECFALGNPVPDIRWRKVLEPMPSTAEISTSGAVLKIFNIQLEDEGLYECEAENIRGKDKHQARIYVQAFPEWVEHINDTEVDIGSDLYWPCIATGKPIPTIRWLKNGYSYHKGELRLYDVTFENAGMYQCIAENAYGSIYANAELKILALAPTFEMNPMKKKILAAKGGRVIIECKPKAAPKPKFSWSKGTEWLVNSSRILIWEDGSLEINNITRNDGGIYTCFAENNRGKANSTGTLVITNPTRIILAPINADITVGENATMQCAASFDPALDLTFVWSFNGYVIDFNKEITHIHYQRNFMLDANGELLIRNAQLKHAGRYTCTAQTIVDNSSASADLVVRGPPGPPGGLRIEDIRATSVALTWSRGSDNHSPISKYTIQTKTILSDDWKDAKTDPPIIEGNMESAKAVDLIPWMEYEFRVVATNTLGTGEPSIPSNRIKTDGAAPNVAPSDVGGGGGTNRELTITWAPLSREYHYGNNFGYIVAFKPFDGEEWKKVTVTNPDTGRYVHKDETMTPSTAFQVKVKAFNNKGDGPYSLVAVINSAQDAPSEAPTEVGVKVLSSSEISVHWKHVLEKIVESYQIRYWAGHDKEAAAHRVQVTSQEYSARLENLLPDTQYFIEVGACNSAGCGPSSDVIETFTRKAPPSQPPRIISSVRSGSRYIITWDHVVALSNESTVTGYKILYRPDGQHDGKLFSTHKHSIEVPIPRDGEYVVEVRAHSDGGDGVVSQVKISGVSTLSSSLLSLLLPSLGFLVYSEF | – | – | – | – | – | – | no change |
